In assay [1] the target is C-Mad2* (closed conformation of full-length human R133A Mad2) (human) (UniProt Q13257). Briefly: 15N-CEST + 15N-CPMG relaxation dispersion NMR.
The target in assay [2] is L5I Mad2* (L5I R133A Mad2) (human, UniProt Q13257 1-205, L5I | R133A). The experiment in a line: NMR titration.
Assay [3] addresses C-Mad2* (closed conformation of full-length human R133A Mad2) (human, UniProt Q13257 1-205, R133A). The experiment in a line: NMR titration.

Results on two molecules are retold here after publication PMC7616478 (Proteins, 2024).

Usually Kd stands for a measure of binding affinity in units of concentration. Usually koff stands for a measure of how fast the partners let go of each other. For orientation: kon means the rate constant with which the complex forms.

Sequence of L5I Mad2* (L5I R133A Mad2) (Q13257 whole entry L5I/R133A): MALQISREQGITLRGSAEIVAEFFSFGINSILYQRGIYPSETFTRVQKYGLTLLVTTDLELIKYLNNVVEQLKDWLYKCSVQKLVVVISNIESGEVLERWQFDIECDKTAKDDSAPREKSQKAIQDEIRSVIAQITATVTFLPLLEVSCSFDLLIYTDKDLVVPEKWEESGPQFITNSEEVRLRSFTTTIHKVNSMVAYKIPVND
Sequence of C-Mad2* (closed conformation of full-length human R133A Mad2) (Q13257 whole entry R133A): as the sequence (Q13257 whole entry L5I/R133A) above, with I5L counted along it

“C-Mad2* (closed conformation of full-length human R133A Mad2) (from UniProt Q13257 1-205) (natural protein)”: in assay [1], the Kd amounted to 3.4 mM, the koff was 152 s⁻¹, the kon was determined as 44000 M⁻¹ s⁻¹ and the population of the excited state E1 (pE1) at 133 μM turned out to be 3.5%.

With SWYSYPPPQRAV [Mad2-binding peptide 1 (MBP1)], the binding result in assay [2] and in assay [3] was “binds” each time.
